# Measured values reported in IntAct's records for PubMed 19204291.
# B1: Programmed cell death protein 4 (Homo sapiens), Q53EL6 (parent)
# chain: MDVENEQILNVNPADPDNLSDSLFSGDEENAGTEEIKNEINGNWISASSINEARINAKAKRRLRKNSSRDSGRGDSVSDSGSDALRSGLTVPTSPKGRLLDRRSRSGKGRGLPKKGGAGGKGVWGTPGQVYDVEEVDVKDPNYDDDQENCVYETVVLPLDERAFEKTLTPIIQEYFEHGDTNEVAEMLRDLNLGEMKSGVPVLAVSLALEGKASHREMTSKLLSDLCGTVMSTTDVEKSFDKLLKDLPELALDTPRAPQLVGQFIARAVGDGILCNTYIDSYKGTVDCVQARAALDKATVLLSMSKGGKRKDSVWGSGGGQQSVNHLVKEIDMLLKEYLLSGDISEAEHCLKELEVPHFHHELVYEAIIMVLESTGESTFKMILDLLKSLWKSSTITVDQMKRGYERIYNEIPDINLDVPHSYSVLERFVEECFQAGIISKQLRDLCPSRGRKRFVSEGDGGRLKPESY
# Variants of: B1
# Settings: with if4a1_human EIF4A1, P60842
# Chain of if4a1_human EIF4A1, P60842 (P60842 whole entry): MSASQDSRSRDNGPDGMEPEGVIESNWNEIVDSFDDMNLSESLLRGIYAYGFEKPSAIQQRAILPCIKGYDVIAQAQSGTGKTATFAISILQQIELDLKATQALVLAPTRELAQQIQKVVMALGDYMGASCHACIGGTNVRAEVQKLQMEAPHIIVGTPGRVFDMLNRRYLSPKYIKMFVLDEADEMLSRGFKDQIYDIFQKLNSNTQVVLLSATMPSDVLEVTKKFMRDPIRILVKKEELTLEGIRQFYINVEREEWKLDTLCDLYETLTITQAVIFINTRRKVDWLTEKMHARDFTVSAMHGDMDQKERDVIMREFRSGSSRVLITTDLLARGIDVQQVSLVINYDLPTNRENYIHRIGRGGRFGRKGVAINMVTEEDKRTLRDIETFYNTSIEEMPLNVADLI
row,Variant,effect of a mutation on the interaction
1,MDVENEQILNVNPADPDNLSDSLFSGDEENAGTEEIKNEINGNWISASSINEARINAKAKRRLRKNSSRDSGRGDSVSDSGSDALRSGLTVPTSPKGRLLDRRSRSGKGRGLPKKGGAGGKGVWGTPGQVYDVEEVDVKDPNYDDDQENCVYETVVLPLDERAFEKTLTPIIQEYFEHGDTNEVAEMLRDLNLGEMKSGVPVLAVSLALEGKASHREMTSKLLSDLCGTVMSTTDVEKSFDKLLKDLPALALATPRAPQLVGQFIARAVGDGILCNTYIDSYKGTVDCVQARAALDKATVLLSMSKGGKRKDSVWGSGGGQQSVNHLVKEIDMLLKEYLLSGDISEAEHCLKELEVPHFHHELVYEAIIMVLESTGESTFKMILDLLKSLWKSSTITVDQMKRGYERIYNEIPAINLAVPHSYSVLERFVEECFQAGIISKQLRDLCPSRGRKRFVSEGDGGRLKPESY [E249A;D253A;D414A;D418A],disrupting interaction strength
